Consider 15 molecules from patent US20170008955A1 (CNJ, published 2017).

Bounds are passed on as bounds.

The target in experiment [1] is T1, cSNK:BSA conjugate (bovine, head-to-tail cyclized; conjugated to BSA carrier).
T1 construct: also called BSA-cSNK
Briefly: BLI (Octet), KD2. (In general: Biolayer interferometry detects binding as a change in optical thickness at a sensor tip.)

The target in experiment [2] is T1, cSNK:BSA conjugate. Briefly: BLI (Octet), KD1.
Experiment [3] deals with T1, cSNK:BSA conjugate. Briefly: BLI (Octet), 1:1 model, BSA-cSNK. As to the method: Biolayer interferometry (Octet Red92, ForteBio) was used to qualitatively/quantitatively assess the interactions between humanized 5E3 and Δ5E3 mAbs to the cSNK:BSA conjugate. […] MAbs were loaded onto sensors and then washed in PBST. Each sensor was associated with one of several cSNK:BSA standards (100 nM to 0 nM) and then washed in PBST. Data was processed statistically using ForteBio Data Analysis software to determine the strength of antigen-antibody binding (KD). For each mAb analyzed, a 1:1 model provided the “best fit”.

The target in experiment [4] is T1, cSNK:BSA conjugate. In words: BLI (Octet), compared to hu5E3.

T1 sequence (P02769 25-607 limits assumed): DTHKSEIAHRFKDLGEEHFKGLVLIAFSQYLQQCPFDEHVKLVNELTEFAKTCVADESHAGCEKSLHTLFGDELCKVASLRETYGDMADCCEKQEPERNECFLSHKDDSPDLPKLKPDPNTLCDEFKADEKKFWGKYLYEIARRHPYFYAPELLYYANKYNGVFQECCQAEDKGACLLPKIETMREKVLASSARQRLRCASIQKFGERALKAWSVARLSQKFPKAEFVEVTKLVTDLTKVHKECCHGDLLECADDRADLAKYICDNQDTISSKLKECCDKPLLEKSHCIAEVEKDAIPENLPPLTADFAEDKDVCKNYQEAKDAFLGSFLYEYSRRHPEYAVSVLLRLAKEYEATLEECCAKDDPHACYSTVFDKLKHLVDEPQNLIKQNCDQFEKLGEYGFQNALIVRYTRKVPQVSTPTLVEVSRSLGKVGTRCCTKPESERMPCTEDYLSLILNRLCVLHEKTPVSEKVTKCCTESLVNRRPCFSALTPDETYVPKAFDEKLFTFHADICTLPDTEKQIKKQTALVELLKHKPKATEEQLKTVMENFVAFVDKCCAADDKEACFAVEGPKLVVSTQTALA

B1: 5E3KCDR3-A116Y (antibody, IgG1, V domains shown)
VH: QVQLQQSGPEVKKPGASVKISCKASGYIFTSYYIQWVIHAPGQGLEWIGWIYPGNVNTKYNEKFKGKATLTADKSSSTAYMELSSLTSEDTAVYFCARMDYEAHYWGQGTTVTVSS
VL: DIQMTQSPSSLSASVGDRVTITCRASQEISGYLTWLQQKPEGAIKRLIYAASTLDSGVPKRFSGSRSGSDYSLTISSLQPEDFATYNCLQYYNYPRTFGGGTKLEIK
notes: hu5E3 IgG1 vector mutant
B1: the values for the dissociation constant (Kd) in the experiment with cSNK:BSA conjugate [1] and with cSNK:BSA conjugate [2] were 1.93 nM and less than 0.001 nM, respectively.

B2: 5E3KCDR3-L89I (antibody, IgG1, V domains shown)
VH: QVQLQQSGPEVKKPGASVKISCKASGYIFTSYYIQWVIHAPGQGLEWIGWIYPGNVNTKYNEKFKGKATLTADKSSSTAYMELSSLTSEDTAVYFCARMDYEAHYWGQGTTVTVSS
VL: DIQMTQSPSSLSASVGDRVTITCRASQEISGYLTWLQQKPEGAIKRLIYAASTLDSGVPKRFSGSRSGSDYSLTISSLQPEDFATYNCIQYANYPRTFGGGTKLEIK
notes: hu5E3 IgG1 vector mutant
As to B2, the figures for the Kd in the experiment with cSNK:BSA conjugate [1] and with cSNK:BSA conjugate [2] were 17.4 nM and 1.62 nM, respectively.

B3: HuΔ5E3-IgG1 (KQA) (antibody, V domains shown)
VH: QVQLQQSGPEVKKPGASVKISCKASGYIFTSYYIQWVKQAPGQGLEWIGWIYPGNVNTKYNEKFKGKATLTADKSSSTAYMELSSLTSEDTAVYFCARMDYEAHYWGQGTTVTVSS
VL: DIQMTQSPSSLSASVGDRVTITCRASQEISGYLTWLQQKPEGAIKRLIYAASTLDSGVPKRFSGSRSGSDYSLTISSLQPEDFATYNCLQYANYPRTFGGGTKLEIK
notes: human IgG1; also called huΔ5E3 KQA Mutation
Turning to B3, in the experiment with cSNK:BSA conjugate [3], the dissociation constant (Kd) (commonly a measure of binding affinity in units of concentration) was 1.28 nM. That is a single-digit nanomolar value.

B4: HuΔ5E3-IgG1 (IHR) (antibody, V domains shown)
VH: QVQLQQSGPEVKKPGASVKISCKASGYIFTSYYIQWVIHRPGQGLEWIGWIYPGNVNTKYNEKFKGKATLTADKSSSTAYMELSSLTSEDTAVYFCARMDYEAHYWGQGTTVTVSS
VL: DIQMTQSPSSLSASVGDRVTITCRASQEISGYLTWLQQKPEGAIKRLIYAASTLDSGVPKRFSGSRSGSDYSLTISSLQPEDFATYNCLQYANYPRTFGGGTKLEIK
notes: human IgG1; also called huΔ5E3 IHR Mutation
B4: in the experiment with cSNK:BSA conjugate [3], binding was characterised by a dissociation constant (Kd) of 1.43 nM.

B5: 5E3KCDR3-N93D + 5E3HCDR3-Y212F (antibody, IgG1, V domains shown)
VH: QVQLQQSGPEVKKPGASVKISCKASGYIFTSYYIQWVIHAPGQGLEWIGWIYPGNVNTKYNEKFKGKATLTADKSSSTAYMELSSLTSEDTAVYFCARMDYEAHFWGQGTTVTVSS
VL: DIQMTQSPSSLSASVGDRVTITCRASQEISGYLTWLQQKPEGAIKRLIYAASTLDSGVPKRFSGSRSGSDYSLTISSLQPEDFATYNCLQYADYPRTFGGGTKLEIK
notes: double combination in hu5E3 IgG1
On to B5, for which the Kd with cSNK:BSA conjugate [1] is 2.41 nM; with cSNK:BSA conjugate [2] it was 0.0194 nM.

B6: 5E3KCDR3-N93D (antibody, IgG1, V domains shown)
VH: QVQLQQSGPEVKKPGASVKISCKASGYIFTSYYIQWVIHAPGQGLEWIGWIYPGNVNTKYNEKFKGKATLTADKSSSTAYMELSSLTSEDTAVYFCARMDYEAHYWGQGTTVTVSS
VL: DIQMTQSPSSLSASVGDRVTITCRASQEISGYLTWLQQKPEGAIKRLIYAASTLDSGVPKRFSGSRSGSDYSLTISSLQPEDFATYNCLQYADYPRTFGGGTKLEIK
notes: hu5E3 IgG1 vector mutant; same change as 5E3KCDR3-N117D
As for B6, the Kd was 9.9 nM with cSNK:BSA conjugate [1] and 4.25 nM with cSNK:BSA conjugate [2].

B7: 5E3KCDR3-L89I + 5E3HCDR3-Y212F (antibody, IgG1, V domains shown)
VH: QVQLQQSGPEVKKPGASVKISCKASGYIFTSYYIQWVIHAPGQGLEWIGWIYPGNVNTKYNEKFKGKATLTADKSSSTAYMELSSLTSEDTAVYFCARMDYEAHFWGQGTTVTVSS
VL: DIQMTQSPSSLSASVGDRVTITCRASQEISGYLTWLQQKPEGAIKRLIYAASTLDSGVPKRFSGSRSGSDYSLTISSLQPEDFATYNCIQYANYPRTFGGGTKLEIK
notes: as for B5
Regarding B7, the Kd with cSNK:BSA conjugate [1] worked out at 4.2 nM; in the experiment with cSNK:BSA conjugate [2], 0.021 nM.

B8: HuΔ5E3-IgG4 (KQR) (antibody, V domains shown)
VH: QVQLQQSGPEVKKPGASVKISCKASGYIFTSYYIQWVKQRPGQGLEWIGWIYPGNVNTKYNEKFKGKATLTADKSSSTAYMELSSLTSEDTAVYFCARMDYEAHYWGQGTTVTVSS
VL: DIQMTQSPSSLSASVGDRVTITCRASQEISGYLTWLQQKPEGAIKRLIYAASTLDSGVPKRFSGSRSGSDYSLTISSLQPEDFATYNCLQYANYPRTFGGGTKLEIK
notes: KQR framework 2 variant of hu5E3 on human IgG4
In the experiment with cSNK:BSA conjugate [3], B8 registered an equilibrium dissociation constant (Kd) of 1.04 nM.

B9: HuΔ5E3-IgG2 (KQR) (antibody, V domains shown)
VH: QVQLQQSGPEVKKPGASVKISCKASGYIFTSYYIQWVKQRPGQGLEWIGWIYPGNVNTKYNEKFKGKATLTADKSSSTAYMELSSLTSEDTAVYFCARMDYEAHYWGQGTTVTVSS
VL: DIQMTQSPSSLSASVGDRVTITCRASQEISGYLTWLQQKPEGAIKRLIYAASTLDSGVPKRFSGSRSGSDYSLTISSLQPEDFATYNCLQYANYPRTFGGGTKLEIK
notes: KQR framework 2 variant of hu5E3 on human IgG2
Consider B9, for which the Kd with cSNK:BSA conjugate [3] came to 0.226 nM.

B10: 5E3KCDR3-N93Q + 5E3HCDR3-Y212F (antibody, IgG1, V domains shown)
VH: QVQLQQSGPEVKKPGASVKISCKASGYIFTSYYIQWVIHAPGQGLEWIGWIYPGNVNTKYNEKFKGKATLTADKSSSTAYMELSSLTSEDTAVYFCARMDYEAHFWGQGTTVTVSS
VL: DIQMTQSPSSLSASVGDRVTITCRASQEISGYLTWLQQKPEGAIKRLIYAASTLDSGVPKRFSGSRSGSDYSLTISSLQPEDFATYNCLQYAQYPRTFGGGTKLEIK
notes: as for B5
As for B10, the values for the dissociation constant (Kd) in the experiment with cSNK:BSA conjugate [1] and in the experiment with cSNK:BSA conjugate [2] were 2.8 nM and 0.0201 nM, respectively.

B11: 5E3KCDR3-Y91F (antibody, IgG1, V domains shown)
VH: QVQLQQSGPEVKKPGASVKISCKASGYIFTSYYIQWVIHAPGQGLEWIGWIYPGNVNTKYNEKFKGKATLTADKSSSTAYMELSSLTSEDTAVYFCARMDYEAHYWGQGTTVTVSS
VL: DIQMTQSPSSLSASVGDRVTITCRASQEISGYLTWLQQKPEGAIKRLIYAASTLDSGVPKRFSGSRSGSDYSLTISSLQPEDFATYNCLQFANYPRTFGGGTKLEIK
notes: hu5E3 IgG1 vector mutant
B11: the binding result with cSNK:BSA conjugate [4] is given as “no binding (tested: 100 nM)”.

B12: 5E3KCDR3-N93Q (antibody, IgG1, V domains shown)
VH: QVQLQQSGPEVKKPGASVKISCKASGYIFTSYYIQWVIHAPGQGLEWIGWIYPGNVNTKYNEKFKGKATLTADKSSSTAYMELSSLTSEDTAVYFCARMDYEAHYWGQGTTVTVSS
VL: DIQMTQSPSSLSASVGDRVTITCRASQEISGYLTWLQQKPEGAIKRLIYAASTLDSGVPKRFSGSRSGSDYSLTISSLQPEDFATYNCLQYAQYPRTFGGGTKLEIK
notes: hu5E3 IgG1 vector mutant
On to B12, for which the Kd with cSNK:BSA conjugate [1] turned out to be 0.76 nM; in the experiment with cSNK:BSA conjugate [2] it was 9.12 nM.

B13: HuΔ5E3-IgG1 (IQR) (antibody, V domains shown)
VH: QVQLQQSGPEVKKPGASVKISCKASGYIFTSYYIQWVIQRPGQGLEWIGWIYPGNVNTKYNEKFKGKATLTADKSSSTAYMELSSLTSEDTAVYFCARMDYEAHYWGQGTTVTVSS
VL: DIQMTQSPSSLSASVGDRVTITCRASQEISGYLTWLQQKPEGAIKRLIYAASTLDSGVPKRFSGSRSGSDYSLTISSLQPEDFATYNCLQYANYPRTFGGGTKLEIK
notes: human IgG1; also called huΔ5E3 IQR Mutation
For the molecule B13, binding with cSNK:BSA conjugate [3] was characterised by a dissociation constant (Kd) of 1.26 nM. That is a single-digit nanomolar value.

B14: HuΔ5E3-IgG1 (KHA) (antibody, V domains shown)
VH: QVQLQQSGPEVKKPGASVKISCKASGYIFTSYYIQWVKHAPGQGLEWIGWIYPGNVNTKYNEKFKGKATLTADKSSSTAYMELSSLTSEDTAVYFCARMDYEAHYWGQGTTVTVSS
VL: DIQMTQSPSSLSASVGDRVTITCRASQEISGYLTWLQQKPEGAIKRLIYAASTLDSGVPKRFSGSRSGSDYSLTISSLQPEDFATYNCLQYANYPRTFGGGTKLEIK
notes: human IgG1; also called huΔ5E3 KHA Mutation
B14: the Kd with cSNK:BSA conjugate [3] amounted to 1.52 nM.

B15: HuΔ5E3-IgG1 (KQR) (antibody, V domains shown)
VH: QVQLQQSGPEVKKPGASVKISCKASGYIFTSYYIQWVKQRPGQGLEWIGWIYPGNVNTKYNEKFKGKATLTADKSSSTAYMELSSLTSEDTAVYFCARMDYEAHYWGQGTTVTVSS
VL: DIQMTQSPSSLSASVGDRVTITCRASQEISGYLTWLQQKPEGAIKRLIYAASTLDSGVPKRFSGSRSGSDYSLTISSLQPEDFATYNCLQYANYPRTFGGGTKLEIK
notes: human IgG1; also called hu5E3 IgG1 KQR; huΔ5E3 KQR Mutation
On to B15, for which, in the experiment with cSNK:BSA conjugate [3], the affinity, expressed as Kd, was 1.88 nM.
